Laboratory results reported in patent US20240424107.

Tested on: IgG Fc dimer protein, P01857-1
Conditions: printed ggAGG[2'-F-rU]Gc[2'-F-rU]ccgaaaGgaa[2'-F-rC][2'-F-rU]cc (lowercase DNA, uppercase RNA); about 10 oxanine nucleotides added at 3' end; at least one aptamer per Fc dimer, one or two observed; HEPES pH 8.4, Mg, K, 37 C, 1 day

How did the activity (% conjugation) turn out when “GGAGGTGCTCCGAAAGGAACTCC [Fc RNA aptamer Apt8-2-oxanine]” was run?
The activity (% conjugation) was > 98.
